Laboratory results: patent US20120034651A1 (JAPAN SCIENCE AND TECHNOLOGY AGENCY, published 2012)

Target: the molecule itself
Experiment: not described in this filing

B1: 36-38A TCL1 (other, human, UniProt P56279 1-114, looked up)
chain: MAECPTLGEAVTDHPDRLWAWEKFVYLDEKQHAWLAAAIEIKDRLQLRVLLRREDVVLGRPMTPTQIGPSLLPIMWQLYPDGRYRSSDSSFWRLVYHIKIDGVEDMLLELLPDD
  binding result: no binding
